Article PMC10651130

Biological target: RapR-LIMK1-Flag (LIMK1 T508D with iFKBP inserted in place of E360, flanked by GPG linkers) (UniProt P53667)
Assay: co-IP

normalized binding to TrkB (500 nM rapamycin): 98.6%
Substance: TrkB-EGFP (tropomyosin receptor kinase B, EGFP-tagged) (from UniProt Q16620 32-822)
